We go through 167 variants from the RNAGym collection of RNA variant scans (doi:10.7554/elife.80360).

B1: CPEB3 Ribozyme (parent)
chain: GGGGGCCACAGCAGAAGCGUUCACGUCGCGGCCCCUGUCAGAUUCUGGUGAAUCUGCGAAUUCUGCUGU

This data set covers variants of B1. Description: self-cleavage, relative activity (ratio to wild type); higher = more cleavage; co-transcriptional.
Turning to U38A A60G, the self-cleavage was 0.563.
For the variant U38A A60C, the self-cleavage stood at 0.418.
On to U38A C45G, for which the self-cleavage was determined as 0.902.
In the case of U38C U67C it was 0.949; in that of U38C U67A, 0.931; in that of C39A G65C, 0.361.
To C39A G65U belongs 0.397; to C39A G65A, 0.478.
To G37U U64A belongs 0.269.
As for G37U U64C, the self-cleavage worked out at 0.283.
In the case of U38C U43A it was 0.8.
To U38C U43C belongs 0.858; to C39A A42C, 0.476; to C39A A42G, 0.35.
To U38A G65C belongs 0.578.
Regarding U38A G65U, the self-cleavage amounted to 0.633.
To C39A U43C belongs 0.517; to C39A U43A, 0.386.
In the case of U38C G50C it was 0.942; in that of U38C G50A, 0.948.
To G37U U53G belongs 0.206; to G37U U53C, 0.252.
Regarding U38A U49G, the self-cleavage amounted to 0.962.
To U38A U49A belongs 0.846; to U38A U49C, 0.899; to U38G C39A, 0.8.
To U38G U69G belongs 0.42.
To U38G U69A belongs 0.352; to U38G U69C, 0.412.
In the case of G37U G65U, the self-cleavage was found to be 0.265.
Turning to G37U G65A, the self-cleavage turned out to be 0.234.
In the case of U38G U44G it was 0.346; in that of U38G U44C, 0.273; in that of G37C G56U, 0.237.
To G37C G56A belongs 0.205; to G37C U49C, 0.286; to G37C U49G, 0.234.
In the case of C39A C45A it was 0.64; in that of C39A C45U, 0.708.
Turning to U38G C63A, the self-cleavage is 0.155.
In the case of C39A A40C it was 0.835.
In the case of C39A A40G it was 0.841; in that of C39A A40U, 0.475; in that of C39A G41U, 0.277.
In the case of U38C A59U it was 0.316.
For U38C U64G, the self-cleavage amounted to 0.785.
To U38C U64C belongs 0.662.
In the case of U38C A51G it was 0.88; in that of U38C A51C, 0.87; in that of C39A G58A, 0.625.
To C39A G58U belongs 0.948.
Regarding U38A C57A, the self-cleavage turned out to be 0.368.
To U38A C57U belongs 0.35.
To G37C U61A belongs 0.201; to G37C U61C, 0.223; to G37C U61G, 0.282.
In the case of G37U G58C it was 0.279; in that of G37U G58U, 0.362.
Take U38G C54A: the self-cleavage is 0.304.
In the case of C39A A52U it was 0.673.
For C39A A52G, the self-cleavage is 0.833.
To C39A A52C belongs 0.67.
To C39A C63A belongs 0.465.
In the case of C39A C63U it was 0.776; in that of C39A C63G, 0.407.
With U38A G41C, the self-cleavage was found to be 0.675.
Regarding U38A A51U, the self-cleavage came to 0.84.
Consider C39A G47U, for which the self-cleavage came out at 0.919.
In the case of C39A G47A it was 0.949; in that of U38G G47U, 0.219.
To U38G G47A belongs 0.272; to U38A U55G, 0.758.
Regarding U38A U55C, the self-cleavage worked out at 0.846.
For U38A U55A, the self-cleavage is 0.779.
Consider U38C G58A, for which the self-cleavage came out at 0.895.
To U38C G58U belongs 1.01; to U38C G58C, 0.929.
In the case of U38G U49C it was 0.231.
In the case of U38G U49A it was 0.178.
On to U38G U49G, for which the self-cleavage is 0.264.
To U38A U62A belongs 0.648; to U38A U62C, 0.594.
Take U38G G58A: the self-cleavage was 0.257.
In the case of U38G G58C it was 0.236.
To C39A U53C belongs 0.37; to C39A U53G, 0.351; to C39A U53A, 0.447.
To G37C G50C belongs 0.265; to G37C G50U, 0.188; to G37C G50A, 0.257.
U38C C39G: the self-cleavage is 0.448.
In the case of U38C C39U it was 0.702; in that of U38C C39A, 0.299; in that of U38A U53C, 0.811.
Turning to G37U G47C, the self-cleavage came to 0.352.
Turning to G37U G47U, the self-cleavage amounted to 0.365.
To G37U belongs 0.319; to C39A C57G, 0.327; to C39A C57U, 0.346.
In the case of U38A G47U it was 1; in that of U38A G47A, 0.916; in that of U38A G47C, 0.937.
To G37U C63G belongs 0.312.
Regarding G37U C63U, the self-cleavage amounted to 0.271.
In the case of G37U C63A, the self-cleavage was 0.239.
In the case of G37C U64G it was 0.205; in that of G37C U43C, 0.203; in that of G37C U43A, 0.264.
To U38A U46G belongs 0.943.
For the variant G37C G65U, the self-cleavage amounted to 0.237.
For the variant G37C G65A, the self-cleavage stood at 0.246.
To U38C U69C belongs 1.06; to U38C U69A, 0.988.
For the variant U38A C66G, the self-cleavage came out at 0.764.
To U38A C66A belongs 0.721; to U38A C66U, 0.917; to U38C A40G, 0.842.
In the case of U38C A40U it was 0.889; in that of U38C A40C, 0.77; in that of U38C U44A, 0.891.
For U38C U44C, the self-cleavage amounted to 0.856.
In the case of U38G A51C it was 0.293.
U38A A52U: the self-cleavage is 0.856.
To U38A A52G belongs 0.89; to U38C G48A, 0.963.
To U38G G50U belongs 0.271.
As for U38G U55C, the self-cleavage was 0.172.
To U38G U55G belongs 0.283.
As for U38G U55A, the self-cleavage was determined as 0.196.
In the case of U38A U61C it was 0.507.
To U38A U61G belongs 0.637; to U38A U61A, 0.782; to G37U A40G, 0.366.
To G37U A40C belongs 0.205; to G37C U38A, 0.246.
With G37C U38C, the self-cleavage amounted to 0.201.
With G37C U53A, the self-cleavage stood at 0.256.
To G37C U69G belongs 0.375.
In the case of U38G U67C it was 0.302.
In the case of U38G U67G it was 0.273.
In the case of U38G U67A, the self-cleavage was found to be 0.295.
In the case of G37C U62A it was 0.212; in that of G37C U62G, 0.157; in that of G37U U49G, 0.327.
In the case of G37U U49A it was 0.258; in that of G37U U49C, 0.335.
As to U38C C66G, the self-cleavage came to 0.717.
To U38C C66A belongs 0.687; to G37U U46G, 0.263; to G37U U46A, 0.416.
To G37U U46C belongs 0.292; to G37U A42U, 0.246.
In the case of G37U A42C it was 0.256.
With G37U A42G, the self-cleavage turned out to be 0.234.
In the case of C39A G68C, the self-cleavage came to 0.932.
To C39A G68U belongs 0.976; to U38G C66G, 0.229.
With U38G C66U, the self-cleavage was 0.194.
In the case of U38G C66A it was 0.285.
In the case of U38A A59G it was 0.939; in that of U38A A59C, 0.497.
With U38A A59U, the self-cleavage amounted to 0.462.
Regarding G37U G41C, the self-cleavage came out at 0.139.
In the case of G37U G41A it was 0.244; in that of G37C U44C, 0.187; in that of U38A U67G, 0.9.
As to U38A U67A, the self-cleavage was 0.941.
